In publication PMC11993163:

What was measured:
[1] = target: PfNPM A3 (residues 1-170, up to A3 acidic tract) (Plasmodium falciparum) (UniProt C0H4U4); assay: pull-down
[2] = target: PfNPM A1 (residues 1-110, up to A1 acidic tract) (Plasmodium falciparum) (UniProt C0H4U4); assay: pull-down

“assembled H3/H4 tetramer (from UniProt P84233 1-136; P62799 1-103) (complex)” was tested, and the highest NaCl concentration at which the complex was stable [1] was 600 mM NaCl and the highest NaCl concentration at which the complex was stable [2] was 600 mM NaCl.
